We go through one molecule from PMC3281933.

In the assay the target is low density lipoprotein receptor-related protein 1 (LRP1) (human (endogenous in 1064Sk human skin fibroblasts)).

B1: CCN1 (CYR61) (natural protein)
chain: TCPAACHCPLEAPKCAPGVGLVRDGCGCCKVCAKQLNEDCSKTQPCDHTKGLECNFGASSTALKGICRAQSEGRPCEYNSRIYQNGESFQPNCKHQCTCIDGAVGCIPLCPQELSLPNLGCPNPRLVKVTGQCCEEWVCDEDSIKDPMEDQDGLLGKELGFDASEVELTRNNELIAVGKGSSLKRLPVFGMEPRILYNPLQGQKCIVQTTSWSQCSKTCGTGISTRVTNDNPECRLVKETRICEVRPCGQPVYSSLKKGKKCSKTKKSPEPVRFTYAGCLSVKKYRPKYCGSCVDGRCCTPQLTRTVKMRFRCEDGETFSKNVMMIQSCKCNYNCPHANEAAFPFYRLFNDIHKFRD
As to B1, the CCN1/TNFα-induced apoptosis of human skin fibroblasts (CCN1 2 µg/ml, TNFα 10 ng/ml, 5 hrs) after pre-incubation with 1 µM recombinant RAP is 60%.
